# Test results from patent publication US20220010021A1 (Sanofi, published 2022).
# T1: human beta-Klotho (KLB) (human, UniProt Q86Z14 53-997)
# T1 construct: Bought protein; also called human KLB; β-Klotho
# T1 sequence (looked up): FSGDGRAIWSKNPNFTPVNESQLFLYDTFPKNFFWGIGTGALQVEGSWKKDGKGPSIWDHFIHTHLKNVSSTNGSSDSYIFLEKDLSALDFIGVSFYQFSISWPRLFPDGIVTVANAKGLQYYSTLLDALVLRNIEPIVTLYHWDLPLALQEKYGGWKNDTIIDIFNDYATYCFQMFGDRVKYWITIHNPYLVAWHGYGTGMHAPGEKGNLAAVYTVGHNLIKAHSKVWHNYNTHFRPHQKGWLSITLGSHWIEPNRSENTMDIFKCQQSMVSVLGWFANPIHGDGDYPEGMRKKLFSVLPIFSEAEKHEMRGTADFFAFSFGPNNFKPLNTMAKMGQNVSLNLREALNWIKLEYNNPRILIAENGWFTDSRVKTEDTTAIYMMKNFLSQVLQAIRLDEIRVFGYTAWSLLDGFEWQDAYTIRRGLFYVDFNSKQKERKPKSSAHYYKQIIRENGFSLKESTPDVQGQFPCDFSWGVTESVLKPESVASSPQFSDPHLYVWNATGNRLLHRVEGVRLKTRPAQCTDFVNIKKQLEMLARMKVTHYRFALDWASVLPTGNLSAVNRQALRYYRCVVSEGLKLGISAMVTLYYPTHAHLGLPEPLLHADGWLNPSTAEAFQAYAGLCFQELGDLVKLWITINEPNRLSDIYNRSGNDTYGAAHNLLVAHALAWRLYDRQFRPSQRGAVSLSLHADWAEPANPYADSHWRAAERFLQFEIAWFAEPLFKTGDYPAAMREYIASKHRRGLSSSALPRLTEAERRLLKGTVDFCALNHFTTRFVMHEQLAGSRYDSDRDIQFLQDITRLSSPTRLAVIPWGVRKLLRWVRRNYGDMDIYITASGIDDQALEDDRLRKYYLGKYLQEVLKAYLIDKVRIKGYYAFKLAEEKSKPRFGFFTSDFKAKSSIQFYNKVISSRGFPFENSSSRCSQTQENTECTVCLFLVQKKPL
# Key:
# [1] = biological target: cell surface receptor composed of FGFR1c and co-receptor beta-Klotho (KLB) (human, UniProt P11362 22-822; Q86Z14 1-1044); assay: cell-based or functional assay; on Mean E max, Luciferase reporter gene assay: reference of the scale not given here
# human beta-Klotho (KLB) = biological target: T1, human beta-Klotho (KLB); assay: BLI off-rate screening (Octet), crude supernatant;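 further: supernatants tested at 25 µg/mL, dissociation from biosensors recorded in D-PBS with 0.1% BSA over 1800 s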
# Sequence of cell surface receptor composed of FGFR1c and co-receptor beta-Klotho (KLB) (P11362 22-822, chain 1 of 2): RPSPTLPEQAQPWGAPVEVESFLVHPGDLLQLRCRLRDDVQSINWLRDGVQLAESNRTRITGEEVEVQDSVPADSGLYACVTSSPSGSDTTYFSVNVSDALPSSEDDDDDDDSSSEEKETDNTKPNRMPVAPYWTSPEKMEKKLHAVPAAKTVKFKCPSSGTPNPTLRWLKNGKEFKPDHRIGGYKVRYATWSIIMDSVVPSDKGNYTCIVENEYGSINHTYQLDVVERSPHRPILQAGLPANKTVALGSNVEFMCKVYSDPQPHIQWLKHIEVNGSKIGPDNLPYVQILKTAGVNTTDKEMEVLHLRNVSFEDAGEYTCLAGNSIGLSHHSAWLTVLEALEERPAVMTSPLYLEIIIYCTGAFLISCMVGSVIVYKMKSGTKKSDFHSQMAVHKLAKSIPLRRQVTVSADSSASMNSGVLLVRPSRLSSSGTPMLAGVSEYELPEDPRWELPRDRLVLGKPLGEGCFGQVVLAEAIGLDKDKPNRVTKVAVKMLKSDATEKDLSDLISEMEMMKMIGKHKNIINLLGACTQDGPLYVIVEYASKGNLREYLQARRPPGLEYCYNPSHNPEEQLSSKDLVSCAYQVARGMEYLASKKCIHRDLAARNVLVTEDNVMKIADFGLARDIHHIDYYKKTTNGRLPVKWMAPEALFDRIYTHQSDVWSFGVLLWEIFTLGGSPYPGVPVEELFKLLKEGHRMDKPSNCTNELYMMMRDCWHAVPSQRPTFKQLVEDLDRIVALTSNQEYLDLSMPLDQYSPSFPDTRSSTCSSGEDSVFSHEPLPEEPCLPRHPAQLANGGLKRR
# Sequence of cell surface receptor composed of FGFR1c and co-receptor beta-Klotho (KLB) (Q86Z14 whole entry, chain 2 of 2): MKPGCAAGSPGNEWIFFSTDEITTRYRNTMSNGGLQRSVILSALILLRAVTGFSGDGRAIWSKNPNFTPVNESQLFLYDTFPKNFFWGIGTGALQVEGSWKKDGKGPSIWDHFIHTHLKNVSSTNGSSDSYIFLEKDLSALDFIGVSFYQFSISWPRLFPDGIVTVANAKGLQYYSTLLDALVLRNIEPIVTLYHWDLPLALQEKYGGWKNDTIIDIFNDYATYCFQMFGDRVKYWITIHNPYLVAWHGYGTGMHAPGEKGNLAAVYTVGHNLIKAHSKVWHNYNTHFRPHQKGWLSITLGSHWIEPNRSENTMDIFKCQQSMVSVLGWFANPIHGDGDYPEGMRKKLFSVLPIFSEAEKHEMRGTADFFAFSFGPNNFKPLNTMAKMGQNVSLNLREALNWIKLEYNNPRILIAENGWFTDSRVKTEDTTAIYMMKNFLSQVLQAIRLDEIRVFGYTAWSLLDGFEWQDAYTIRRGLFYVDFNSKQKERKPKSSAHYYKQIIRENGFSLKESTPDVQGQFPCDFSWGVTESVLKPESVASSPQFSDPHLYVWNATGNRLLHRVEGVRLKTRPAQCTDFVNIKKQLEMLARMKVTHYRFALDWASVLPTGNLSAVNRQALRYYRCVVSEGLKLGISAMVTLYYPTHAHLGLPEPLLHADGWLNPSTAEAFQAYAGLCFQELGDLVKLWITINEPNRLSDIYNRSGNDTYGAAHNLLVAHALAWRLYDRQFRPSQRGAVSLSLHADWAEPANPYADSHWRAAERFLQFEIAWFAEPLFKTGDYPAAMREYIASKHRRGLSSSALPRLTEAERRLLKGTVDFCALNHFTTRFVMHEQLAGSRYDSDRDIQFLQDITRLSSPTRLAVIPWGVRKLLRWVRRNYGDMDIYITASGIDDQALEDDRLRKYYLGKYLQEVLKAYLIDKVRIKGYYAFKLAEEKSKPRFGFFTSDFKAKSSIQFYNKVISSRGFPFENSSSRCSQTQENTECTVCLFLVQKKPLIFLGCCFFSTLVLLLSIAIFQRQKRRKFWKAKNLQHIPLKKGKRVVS
Binder,"Mean E max, Luciferase reporter gene assay [1] [%]","Mean EC50, Luciferase reporter gene assay [1] [pM]",koff (human beta-Klotho (KLB)) [s⁻¹]
"16H7 light chain variant S94G (antibody, IgG4, V domains shown, IgG4 backbone) VH: not shown VL: SYVLTQPPSVSVAPGQTARITCGGNNIGSESVHWYQQKPGQAPVLVVYDDSDRPSGIPERFSGSNSGNTATLTISRVEAGDEADYYCQVWDGNGDHVVFGGGTKLTVLG",100,146,6.8e-05
"16H7 light chain variant V32G (antibody, IgG4, V domains shown, IgG4 backbone) VH: not shown VL: SYVLTQPPSVSVAPGQTARITCGGNNIGSESGHWYQQKPGQAPVLVVYDDSDRPSGIPERFSGSNSGNTATLTISRVEAGDEADYYCQVWDGNSDHVVFGGGTKLTVLG",103,240,6.5e-05
"16H7 light chain variant S94M (antibody, IgG4, V domains shown, IgG4 backbone) VH: not shown VL: SYVLTQPPSVSVAPGQTARITCGGNNIGSESVHWYQQKPGQAPVLVVYDDSDRPSGIPERFSGSNSGNTATLTISRVEAGDEADYYCQVWDGNMDHVVFGGGTKLTVLG",101,117,1.2e-05
"16H7 light chain variant V32M (antibody, IgG4, V domains shown, IgG4 backbone) VH: not shown VL: SYVLTQPPSVSVAPGQTARITCGGNNIGSESMHWYQQKPGQAPVLVVYDDSDRPSGIPERFSGSNSGNTATLTISRVEAGDEADYYCQVWDGNSDHVVFGGGTKLTVLG",103,135,9.5e-05
"16H7 light chain variant V32A (antibody, IgG4, V domains shown, IgG4 backbone) VH: not shown VL: SYVLTQPPSVSVAPGQTARITCGGNNIGSESAHWYQQKPGQAPVLVVYDDSDRPSGIPERFSGSNSGNTATLTISRVEAGDEADYYCQVWDGNSDHVVFGGGTKLTVLG",108,144,4.7e-05
"16H7 light chain variant V32I (antibody, IgG4, V domains shown, IgG4 backbone) VH: not shown VL: SYVLTQPPSVSVAPGQTARITCGGNNIGSESIHWYQQKPGQAPVLVVYDDSDRPSGIPERFSGSNSGNTATLTISRVEAGDEADYYCQVWDGNSDHVVFGGGTKLTVLG",113,133,2e-05
"16H7 light chain variant V32C (antibody, IgG4, V domains shown, IgG4 backbone) VH: not shown VL: SYVLTQPPSVSVAPGQTARITCGGNNIGSESCHWYQQKPGQAPVLVVYDDSDRPSGIPERFSGSNSGNTATLTISRVEAGDEADYYCQVWDGNSDHVVFGGGTKLTVLG",99,108,5.1e-06
"16H7 light chain variant V32N (antibody, IgG4, V domains shown, IgG4 backbone) VH: not shown VL: SYVLTQPPSVSVAPGQTARITCGGNNIGSESNHWYQQKPGQAPVLVVYDDSDRPSGIPERFSGSNSGNTATLTISRVEAGDEADYYCQVWDGNSDHVVFGGGTKLTVLG",104,123,4.4e-05
"16H7 light chain variant S94I (antibody, IgG4, V domains shown, IgG4 backbone) VH: not shown VL: SYVLTQPPSVSVAPGQTARITCGGNNIGSESVHWYQQKPGQAPVLVVYDDSDRPSGIPERFSGSNSGNTATLTISRVEAGDEADYYCQVWDGNIDHVVFGGGTKLTVLG",106,126,4.3e-05
"16H7 light chain variant S94R (antibody, IgG4, V domains shown, IgG4 backbone) VH: not shown VL: SYVLTQPPSVSVAPGQTARITCGGNNIGSESVHWYQQKPGQAPVLVVYDDSDRPSGIPERFSGSNSGNTATLTISRVEAGDEADYYCQVWDGNRDHVVFGGGTKLTVLG",104,123,5.7e-05
"16H7 light chain variant S94L (antibody, IgG4, V domains shown, IgG4 backbone) VH: not shown VL: SYVLTQPPSVSVAPGQTARITCGGNNIGSESVHWYQQKPGQAPVLVVYDDSDRPSGIPERFSGSNSGNTATLTISRVEAGDEADYYCQVWDGNLDHVVFGGGTKLTVLG",103,169,4.4e-05
"16H7 light chain variant S94V (antibody, IgG4, V domains shown, IgG4 backbone) VH: not shown VL: SYVLTQPPSVSVAPGQTARITCGGNNIGSESVHWYQQKPGQAPVLVVYDDSDRPSGIPERFSGSNSGNTATLTISRVEAGDEADYYCQVWDGNVDHVVFGGGTKLTVLG",108,119,2.8e-05
"16H7 light chain variant V32H (antibody, IgG4, V domains shown, IgG4 backbone) VH: not shown VL: SYVLTQPPSVSVAPGQTARITCGGNNIGSESHHWYQQKPGQAPVLVVYDDSDRPSGIPERFSGSNSGNTATLTISRVEAGDEADYYCQVWDGNSDHVVFGGGTKLTVLG",100,147,7.3e-05
"16H7 light chain variant V32F (antibody, IgG4, V domains shown, IgG4 backbone) VH: not shown VL: SYVLTQPPSVSVAPGQTARITCGGNNIGSESFHWYQQKPGQAPVLVVYDDSDRPSGIPERFSGSNSGNTATLTISRVEAGDEADYYCQVWDGNSDHVVFGGGTKLTVLG",100,102,4.1e-05
"16H7 light chain variant S94T (antibody, IgG4, V domains shown, IgG4 backbone) VH: not shown VL: SYVLTQPPSVSVAPGQTARITCGGNNIGSESVHWYQQKPGQAPVLVVYDDSDRPSGIPERFSGSNSGNTATLTISRVEAGDEADYYCQVWDGNTDHVVFGGGTKLTVLG",109,116,3.2e-05
"16H7 light chain variant V32K (antibody, IgG4, V domains shown, IgG4 backbone) VH: not shown VL: SYVLTQPPSVSVAPGQTARITCGGNNIGSESKHWYQQKPGQAPVLVVYDDSDRPSGIPERFSGSNSGNTATLTISRVEAGDEADYYCQVWDGNSDHVVFGGGTKLTVLG",101,158,2.6e-05
"16H7 light chain variant S94Y (antibody, IgG4, V domains shown, IgG4 backbone) VH: not shown VL: SYVLTQPPSVSVAPGQTARITCGGNNIGSESVHWYQQKPGQAPVLVVYDDSDRPSGIPERFSGSNSGNTATLTISRVEAGDEADYYCQVWDGNYDHVVFGGGTKLTVLG",100,98,6.2e-05
"16H7 light chain variant V32D (antibody, IgG4, V domains shown, IgG4 backbone) VH: not shown VL: SYVLTQPPSVSVAPGQTARITCGGNNIGSESDHWYQQKPGQAPVLVVYDDSDRPSGIPERFSGSNSGNTATLTISRVEAGDEADYYCQVWDGNSDHVVFGGGTKLTVLG",92,141,0.00025
"16H7 light chain variant S94N (antibody, IgG4, V domains shown, IgG4 backbone) VH: not shown VL: SYVLTQPPSVSVAPGQTARITCGGNNIGSESVHWYQQKPGQAPVLVVYDDSDRPSGIPERFSGSNSGNTATLTISRVEAGDEADYYCQVWDGNNDHVVFGGGTKLTVLG",103,133,3.3e-05
"16H7 light chain variant V32L (antibody, IgG4, V domains shown, IgG4 backbone) VH: not shown VL: SYVLTQPPSVSVAPGQTARITCGGNNIGSESLHWYQQKPGQAPVLVVYDDSDRPSGIPERFSGSNSGNTATLTISRVEAGDEADYYCQVWDGNSDHVVFGGGTKLTVLG",104,126,4.9e-05
"16H7 light chain variant S94W (antibody, IgG4, V domains shown, IgG4 backbone) VH: not shown VL: SYVLTQPPSVSVAPGQTARITCGGNNIGSESVHWYQQKPGQAPVLVVYDDSDRPSGIPERFSGSNSGNTATLTISRVEAGDEADYYCQVWDGNWDHVVFGGGTKLTVLG",103,159,4.3e-05
